Test results taken from EP4570823A1.

Molecular target: Aβ oligomers, P05067
Assay: SPR (Biacore), 3F fixed on CM5 chip, Aβ oligomers in flow
Conditions: remark: other sources report otherwise

Sequence of Aβ oligomers, P05067 (P05067 672-713): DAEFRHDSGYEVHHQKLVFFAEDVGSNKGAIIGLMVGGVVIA

B1: antibody 3F (scFv)
scFv: MAEVQLLESGGGLVQPGGSLRLSCAASGFTFSSYAMSWVRQAPGKGLEWVSGISNLGLTTGYADSVKGRFTISRDNSKNTLYLQMNSLRAEDTAVYYCAKTTSRFDYWGQGTLVTVSSGGGGSGGGGSGGGGSTDIQMTQSPSSLSASVGDRVTITCRASQSISSYLNWYQQKPGKAPKLLIYKASYLQSGVPSRFSGSGSGTDFTLTISSLQPEDFATYYCQNSAVRPVTFGQGTKVEIKR
  Kd: 0.847 nM
